# Results from US20240034813A1 (Janssen / Centocor, published 2024).
# Experiments:
# [1] = target: T1, recombinant human EGFR/ErbB1/HER1 with C-terminal His tag, Cy5-labeled (human, UniProt P00533 25-645, Cy5 label (reacted with Cy5 Mono NHS Ester; sites not stated)); assay: competitive TR-FRET (Eu-amivantamab/Cy5-EGFR), EC50 ratio vs Reference Material; Ex. 11 drug product, 1 month at 40 C
# T1 construct: Commercial protein; also called Cy5-EGFR; Cy5-labeled EGFR antigen; not shown: C-terminal His tag
# Description: (§1) In this procedure, varying concentrations of unlabeled bispecific EGFR-cMet antibody sample compete with donor fluorophore (Europium (Eu) chelate) labeled bispecific EGFR-cMet antibody for binding to an acceptor fluorophore (Cy5)-labeled EGFR antigen. Excitation of the donor fluorophore results in a transfer of energy to the bound acceptor fluorophore (FRET process). The resultant FRET is detected by emission of light at 665 nm using a microplate reader capable of measuring time-resolved fluorescence. Sample dose response curves are compared to the RM.
# (§2) EGFR Binding Materials and Methods. Certified commercial EGFR, a recombinant human EGFR/ErbB1/HER1 with C-terminal His tag is reacted with certified commercial Cy5 Mono NHS Ester to produce Cy5-labeled EGFR. Validated bispecific EGFR-cMet antibody is reacted with certified commercial Europium (Eu) chelate to produce Eu-labeled bispecific EGFR-cMet antibody. […] Fluorescence is then measured by spectrophotometry at 665 nm, plotted against antibody concentration and analyzed by a four-parameter logistic model. The antibody concentration required to obtain half of the maximum fluorescence response (EC50) is determined for RM, assay control and samples. The potencies of assay control and samples are calculated based on the ratio of the sample (or control) and RM EC50 values and reported as a percentage activity relative to the RM.
# [2] = target: T2, recombinant cMet/HGFR with c-terminal His-tag, Cy5-labeled (UniProt P08581 25-932, limits assumed, Cy5 label (reacted with Cy5 Mono NHS Ester; sites not stated)); assay: competitive TR-FRET (Eu-amivantamab/Cy5-c-MET), EC50 ratio vs Reference Material; Ex. 11 drug product, 0 months, 40 C table
# T2 construct: Commercial protein; also called Cy5-c-MET; Cy5-labeled c-MET antigen; not shown: C-terminal His-tag
# Description: (§3) In this procedure, varying concentrations of unlabeled bispecific EGFR-cMet antibody sample compete with donor fluorophore (Europium (Eu) chelate) labeled bispecific EGFR-cMet antibody for binding to an acceptor fluorophore (Cy5)-labeled c-MET antigen. Excitation of the donor fluorophore results in a transfer of energy to the bound acceptor fluorophore (FRET process). The resultant FRET is detected by emission of light at 665 nm using a microplate reader capable of measuring time-resolved fluorescence. Sample dose response curves are compared to the Reference Material (RM).
# as §2, with “c-MET Binding” for “EGFR Binding”, “commercial cMet,” for “commercial EGFR,”, “recombinant cMet/HGFR” for “recombinant human EGFR/ErbB1/HER1”, “with c-terminal His-tag” for “with C-terminal His tag”, “Cy5-labeled c-MET.” for “Cy5-labeled EGFR.”, “produce Eu labeled” for “produce Eu-labeled”
# [3] = target: T2, recombinant cMet/HGFR with c-terminal …; assay: competitive TR-FRET (Eu-amivantamab/Cy5-c-MET), EC50 ratio vs Reference Material; Ex. 2 Formulation 3 (acetate), 3 months at 25 C
# Description: as §3
# as §2, with “c-MET Binding” for “EGFR Binding”, “commercial cMet,” for “commercial EGFR,”, “recombinant cMet/HGFR” for “recombinant human EGFR/ErbB1/HER1”, “with c-terminal His-tag” for “with C-terminal His tag”, “Cy5-labeled c-MET.” for “Cy5-labeled EGFR.”, “produce Eu labeled” for “produce Eu-labeled”
# [4] = target: T1, recombinant human EGFR/ErbB1/HER1 with …; assay: competitive TR-FRET (Eu-amivantamab/Cy5-EGFR), EC50 ratio vs Reference Material; Ex. 12 drug product with rHuPH20, 3 months at 40 C
# Description: as §1, §2
# [5] = target: T2, recombinant cMet/HGFR with c-terminal …; assay: competitive TR-FRET (Eu-amivantamab/Cy5-c-MET), EC50 ratio vs Reference Material; Ex. 12 drug product with rHuPH20, 1 month at 40 C
# Description: as §3
# as §2, with “c-MET Binding” for “EGFR Binding”, “commercial cMet,” for “commercial EGFR,”, “recombinant cMet/HGFR” for “recombinant human EGFR/ErbB1/HER1”, “with c-terminal His-tag” for “with C-terminal His tag”, “Cy5-labeled c-MET.” for “Cy5-labeled EGFR.”, “produce Eu labeled” for “produce Eu-labeled”
# [6] = target: T1, recombinant human EGFR/ErbB1/HER1 with …; assay: competitive TR-FRET (Eu-amivantamab/Cy5-EGFR), EC50 ratio vs Reference Material; Ex. 2 Formulation 1 (10 mM histidine), T0, 5 C table
# Description: as §1, §2
# [7] = target: T1, recombinant human EGFR/ErbB1/HER1 with …; assay: competitive TR-FRET (Eu-amivantamab/Cy5-EGFR), EC50 ratio vs Reference Material; Ex. 2 Formulation 2 (50 mM histidine), T0, 5 C table
# Description: as §1, §2
# [8] = target: T2, recombinant cMet/HGFR with c-terminal …; assay: competitive TR-FRET (Eu-amivantamab/Cy5-c-MET), EC50 ratio vs Reference Material; Ex. 2 Formulation 1 (10 mM histidine), T0, 5 C table
# Description: as §3
# as §2, with “c-MET Binding” for “EGFR Binding”, “commercial cMet,” for “commercial EGFR,”, “recombinant cMet/HGFR” for “recombinant human EGFR/ErbB1/HER1”, “with c-terminal His-tag” for “with C-terminal His tag”, “Cy5-labeled c-MET.” for “Cy5-labeled EGFR.”, “produce Eu labeled” for “produce Eu-labeled”
binder,measurement,setting,value
"amivantamab (bispecific antibody, human IgG1, kappa, The samples tested were high concentration (160 mg/mL) formulations, fresh or stored or stressed; also called JNJ-61186372; bispecific EGFR-cMet antibody) heavy 1: not shown light 1: not shown heavy 2: not shown light 2: DIQMTQSPSSVSASVGDRVTITCRASQGISNWLAWFQHKPGKAPKLLIYAASSLLSGVPSRFSGSGSGTDFTLTISSLQPEDFATYYCQQANSFPITFGQGTRLEIKRTVAAPSVFIFPPSDEQLKSGTASVVCLLNNFYPREAKVQWKVDNALQSGNSQESVTEQDSKDSTYSLSSTLTLSKADYEKHKVYACEVTHQGLSSPVTKSFNRGEC",EGFR Binding activity relative to Reference Material (%),[1],39%
same,cMET Binding activity relative to Reference Material (%),[2],85%
same,cMET Binding % activity relative to RM,[3],105%
same,EGFR Binding activity relative to Reference Material (%),[4],9%
same,cMET Binding activity relative to Reference Material (%),[5],81%
same,EGFR Binding % activity relative to RM,[6],103%
same,EGFR Binding % activity relative to RM,[7],103%
same,cMET Binding % activity relative to RM,[8],87%
